In patent US7537932 one finds specific activity in the bioassay (MTT assay, Baflt minus Ba/F3) and specific activity on the Baf assay (MTT survival assay, Baflt minus Baf signal) (Units per milligram) data, which are given here for one substance.

The assay deals with mouse Flt3 receptor on Baflt cells (Ba/F3 cells stably transfected with Flt3 cDNA) (mouse) (UniProt Q00342). As to the kind of experiment: cell-based or functional assay.
Sequence of UniProt Q00342 (Q00342 28-1000): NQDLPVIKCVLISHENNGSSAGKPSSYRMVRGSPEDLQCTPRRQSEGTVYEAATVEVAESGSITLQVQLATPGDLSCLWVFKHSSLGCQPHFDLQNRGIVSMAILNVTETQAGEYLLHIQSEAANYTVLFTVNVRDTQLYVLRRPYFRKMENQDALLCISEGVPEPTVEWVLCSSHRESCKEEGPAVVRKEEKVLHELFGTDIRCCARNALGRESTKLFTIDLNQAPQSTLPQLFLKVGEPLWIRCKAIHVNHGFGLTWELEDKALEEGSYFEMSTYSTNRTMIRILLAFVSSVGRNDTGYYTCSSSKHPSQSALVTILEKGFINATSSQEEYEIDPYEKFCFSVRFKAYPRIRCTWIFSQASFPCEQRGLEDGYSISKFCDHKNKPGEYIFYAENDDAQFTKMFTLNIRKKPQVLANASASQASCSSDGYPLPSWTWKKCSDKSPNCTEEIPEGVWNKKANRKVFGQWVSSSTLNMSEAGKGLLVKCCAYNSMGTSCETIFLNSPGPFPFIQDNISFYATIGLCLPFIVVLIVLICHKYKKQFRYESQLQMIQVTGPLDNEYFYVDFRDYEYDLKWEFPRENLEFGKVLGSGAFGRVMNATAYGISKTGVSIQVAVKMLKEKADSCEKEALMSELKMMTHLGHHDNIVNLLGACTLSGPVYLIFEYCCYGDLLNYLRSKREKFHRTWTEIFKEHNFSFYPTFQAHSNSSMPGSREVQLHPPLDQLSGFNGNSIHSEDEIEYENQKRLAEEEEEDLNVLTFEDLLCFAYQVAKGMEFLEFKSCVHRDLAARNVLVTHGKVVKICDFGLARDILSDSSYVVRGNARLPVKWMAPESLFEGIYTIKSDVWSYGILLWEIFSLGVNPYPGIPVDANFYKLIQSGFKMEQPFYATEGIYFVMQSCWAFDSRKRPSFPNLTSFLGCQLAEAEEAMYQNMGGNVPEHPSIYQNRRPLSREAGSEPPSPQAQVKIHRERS

“purified native mouse Flt3 ligand (naturally occurring soluble form from TA4 thymic stromal cell conditioned medium) (from UniProt P49772 27-189)” gave a specific activity in the bioassay (MTT assay, Baflt minus Ba/F3) of 3e+06 units/mg and a specific activity on the Baf assay (MTT survival assay, Baflt minus Baf signal) (Units per milligram) of 1e+07.
